Assay results: US20130045206A1 (published 2013)

B1: scFv-3 GH9 (scFv)
scFv: QVQLAESGGGLVKPGGSLRLSCAASGFTFSDYYMSWIRQAPGKGLEWVSYISTSGSSIYYVDSVKGRFTISRDNAKNSLYLQMDSLRDDDTAVYYCARDLHGDYAFDSWGQGTLVTVSSGGGGSGGGGSGGGGSSELTQDPAVSVALGQTVRITCQGDSLRSYYASWYQQKPGQAPVLVIYGKNNRPSGIPDRFSGSKSGNSASLDISGLQSEDEADYYCATWDDNLSGPIFGGGTKVTVLG
notes: Monovalent human scFv, about 28 kDa; on phage or soluble depending on the assay; tags not described; also called anti-TfR scFv
B2: scFv-3TF12 (scFv)
scFv: QVQLQESGGGLVQPGGSLRLSCAASGFSFNTYTMHWVRQAPGKGLEWVADIAYDGSTKYYADSVKGRFTISRDNAKNSLYLQMNSLRAEDTAVYYCARDAVAGEGYFDLWGRGTLVTVSSGGGGSGGGGSGGGGSQSALTQDPAVSVALGQTVRITCQGDSLRSYYASWYQQLPGTAPKLLIYRNNQRPSGVPDRFSGSKSGTSASLAISGLRSEDEADYYCAAWDDSLSAWVFGGGTKLTVLGA
B3: F12-Fc (Fc fusion)
chain: QVQLQESGGGLVQPGGSLRLSCAASGFSFNTYTMHWVRQAPGKGLEWVADIAYDGSTKYYADSVKGRFTISRDNAKNSLYLQMNSLRAEDTAVYYCARDAVAGEGYFDLWGRGTLVTVSSGGGGSGGGGSGGGGSQSALTQDPAVSVALGQTVRITCQGDSLRSYYASWYQQLPGTAPKLLIYRNNQRPSGVPDRFSGSKSGTSASLAISGLRSEDEADYYCAAWDDSLSAWVFGGGTKLTVLGA
notes: Homodimer of about 110 kDa (2 x 55 kDa), made in CHO cells; also called scFv-F12-Fc; antibody F12 in the format scFv-Fc; not shown: constant CH2 and CH3 domains of a human IgG1 (vector pFuse-hG1)
B4: F12CH (other)
scFv: QVQLQESGGGLVQPGGSLRLSCAASGFSFNTYTMHWVRQAPGKGLEWVADIAYDGSTKYYADSVKGRFTISRDNAKNSLYLQMNSLRAEDTAVYYCARDAVAGEGYFDLWGRGTLVTVSSGGGGSGGGGSGGGGSQSALTQDPAVSVALGQTVRITCQGDSLRSYYASWYQQLPGTAPKLLIYRNNQRPSGVPDRFSGSKSGTSASLAISGLRSEDEADYYCAAWDDSLSAWVFGGGTKLTVLGA
notes: Bivalent dimer of the scFv 3TF12, about 55 kDa, made in bacteria, held by a bond that DTT reduces; no Fc; also called anti-TfR F12CH; 3TF12 in the scFvCH format; not shown: tail from the bacterial vector pSYN-HIS-CYS (histidine tag, cysteine for dimerisation)
B5: scFv-3TG9 (scFv)
scFv: QVQLVESGGGLVEPGGSLRLSCAASGFTFSNYAINWVRQAPGKGLEWVANIHHDGNGKYYVDSVEGRFTISRDNAKNSLYLQMDSLRAEDTAIYYCARDGYGGYLDLWGQGTLVTVSSGGGGSGGGGSGGGGSSELTQDPAVSVALGQTVRITCQGDSLRSYYASWYQQKPGQAPVLVIYGKNNRPSGIPDRFSGSGSGNTASLTITGAQAEDEADYYCAAWDDSLSGPVFGGGTKVTVLG
notes: as for B1
B6: scFv-3TF2 (scFv)
scFv: QVQLQQSGGGVVQPGGSLRLSCAASEFTFSASGMHWVRQAPGKGLEWMAFIAYDGNQKFYADSVKGRFTISRDNSKNTLYLQMDSLRGEDTAVYYCAKEMQREGYFDYWGQGTLVTVSSGGGGSGGGGSGGGGSNFMLTQDPAVSVALGQTVRITCQGDSLRSYYASWYQQKPGQAPVLVIYGKNNRPSGIPDRFSGSKSGNSASLDISGLQSEDEADYYCATWDDNLSGPIFGGGTKVTVLG
notes: as for B1

Assays:
[1] = biological target: T1, human transferrin receptor (TfR) (human, UniProt P02786 1-760); experiment: FACS on LS-174T cells, scFv on phage, anti-M13 detection (FIG. 7)
T1 construct: whole, on cells; Always the endogenous receptor on human tumour cell lines; no recombinant TfR was used; also called TfR/CD71
T1 sequence (P02786 whole entry): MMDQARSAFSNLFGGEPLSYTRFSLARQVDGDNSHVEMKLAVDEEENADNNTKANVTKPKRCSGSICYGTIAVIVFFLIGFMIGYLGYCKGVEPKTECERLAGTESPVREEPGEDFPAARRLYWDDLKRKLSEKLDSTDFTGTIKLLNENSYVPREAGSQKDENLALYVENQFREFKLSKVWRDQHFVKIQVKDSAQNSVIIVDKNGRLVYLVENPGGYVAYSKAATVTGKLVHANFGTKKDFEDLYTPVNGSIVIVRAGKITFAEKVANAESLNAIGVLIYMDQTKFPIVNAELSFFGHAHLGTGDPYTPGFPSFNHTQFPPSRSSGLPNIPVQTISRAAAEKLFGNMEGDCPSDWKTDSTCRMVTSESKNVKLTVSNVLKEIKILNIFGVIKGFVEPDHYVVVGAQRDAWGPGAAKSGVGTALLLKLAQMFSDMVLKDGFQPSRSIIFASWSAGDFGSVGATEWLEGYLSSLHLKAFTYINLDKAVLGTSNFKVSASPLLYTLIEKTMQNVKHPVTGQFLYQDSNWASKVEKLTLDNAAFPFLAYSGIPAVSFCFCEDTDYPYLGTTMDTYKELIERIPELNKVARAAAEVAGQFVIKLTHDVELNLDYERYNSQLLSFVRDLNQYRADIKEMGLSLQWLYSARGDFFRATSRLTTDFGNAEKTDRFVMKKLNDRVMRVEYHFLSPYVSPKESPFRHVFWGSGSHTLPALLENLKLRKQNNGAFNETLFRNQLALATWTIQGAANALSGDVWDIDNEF

[2] = biological target: T1, human transferrin receptor (TfR); experiment: cell-based or functional assay
murine TfR [3] = biological target: T2, murine TfR (murine, UniProt Q62351 1-763); experiment: flow cytometry on murine Ba/F3 cells, 10 µg/ml, anti-human Fc-phycoerythrin (FIG. 18 (b))
T2 construct: whole, on cells; Endogenous receptor on murine cell lines; also called murine transferrin receptor
T2 sequence (Q62351 whole entry): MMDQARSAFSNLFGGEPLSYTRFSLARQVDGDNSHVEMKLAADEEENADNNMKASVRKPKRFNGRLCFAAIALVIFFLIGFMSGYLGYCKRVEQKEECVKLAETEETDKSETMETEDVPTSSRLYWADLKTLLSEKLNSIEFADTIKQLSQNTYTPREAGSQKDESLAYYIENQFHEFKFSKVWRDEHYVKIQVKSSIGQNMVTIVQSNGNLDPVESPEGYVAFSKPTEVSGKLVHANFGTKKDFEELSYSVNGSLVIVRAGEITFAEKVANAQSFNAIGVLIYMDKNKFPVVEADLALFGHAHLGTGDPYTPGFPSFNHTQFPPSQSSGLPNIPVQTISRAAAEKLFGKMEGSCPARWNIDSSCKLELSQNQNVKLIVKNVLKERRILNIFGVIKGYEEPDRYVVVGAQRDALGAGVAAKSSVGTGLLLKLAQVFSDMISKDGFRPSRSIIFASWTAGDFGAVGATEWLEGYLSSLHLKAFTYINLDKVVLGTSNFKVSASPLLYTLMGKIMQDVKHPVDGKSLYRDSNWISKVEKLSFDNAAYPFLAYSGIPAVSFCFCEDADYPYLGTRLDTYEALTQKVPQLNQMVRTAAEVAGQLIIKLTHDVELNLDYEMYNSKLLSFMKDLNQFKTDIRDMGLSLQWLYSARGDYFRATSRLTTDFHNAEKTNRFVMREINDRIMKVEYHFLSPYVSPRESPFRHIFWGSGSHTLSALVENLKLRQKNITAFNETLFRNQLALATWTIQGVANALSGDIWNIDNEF

murine TfR [4] = biological target: T2, murine TfR; experiment: FACS on murine FMA3 cells, 50 µg/ml, penta-His detection (FIG. 16-d right)

Binder | binding result [1] | IC50 (µg/ml), proliferation test on the line ERY-1, three days [2] [µg/mL] | further results
B1 | binds |  | 
B2 |  | 0.35 | 
B3 |  |  | binding result (murine TfR [3]): binds
B4 |  | 0.1 | binding result (murine TfR [4]): binds
B5 | binds |  | 
B6 | binds |  | 
